Consider one substance from PMC10907249.

The target of the assay is HLA-A*02:01 refolded with the photocleavable peptide photoKV9, UV-exposed (A*02/photoKV9). Description: fluorescence polarisation. In general terms: In fluorescence polarisation assays a small probe gives low polarisation when free and higher when bound to something large.

Consider “US11 peptide S28V_WT (amino acids 17 to 44) (from UniProt P09727 17-44)”, for which the concentration for half-maximal inhibition (IC50) (commonly the point on the concentration scale where inhibition reaches its midpoint) stood at 3.83 µM.
